The series has as its target TDP-43 RRM1-2 WT (UniProt Q13148 102-269). The series can be described thus: BLI; EMSA: 5 ug total lysate in RIPA with RNase inhibitor, 2 ug tRNA, 1 uM unlabelled (GU)x6 and 2.5 nM biotin-(GU)x6, 30 min room temperature, 6% native PAGE; BLI buffer not given in the material (protein purified in phosphate buffer pH 7.2). Particulars: protein: recombinant; tags: 6xHis-SUMO removed by TEV. (In general: BLI is a label-free optical method that tracks binding on a fibre tip over time.)

By Kd is commonly meant the equilibrium constant for the complex coming apart.

Chain of TDP-43 RRM1-2 WT (Q13148 102-269): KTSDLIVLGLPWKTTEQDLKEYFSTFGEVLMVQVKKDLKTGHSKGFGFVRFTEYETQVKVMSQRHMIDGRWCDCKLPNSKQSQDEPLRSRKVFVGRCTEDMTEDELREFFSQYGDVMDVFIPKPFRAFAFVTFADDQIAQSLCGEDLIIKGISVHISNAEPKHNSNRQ

B1: AUG-RNA (ssRNA)
RNA: GUGUGAAUGAAU
Regarding B1, the dissociation constant (Kd) turned out to be 3.2 ± 0.9 nM.
